Data reported in US20130189747A1, “Compositions Comprising A Polypeptide Having Cellulolytic Enhancing Activity And A Sulfur-Containing Compound And Uses Thereof” (priority 2010, published 2013).
Entries after “also recorded” stand apart in the source; their conditions may differ.

What was measured:
Type in all cases: biochemical
[1] = test system: Trichoderma reesei cellulase composition; test: Hydrolysis of milled washed pretreated corn stover (PCS) by the Trichoderma reesei cellulase composition with/without GH61 polypeptide and sulfur-containing compound; conditions: for Enhancement of hydrolysis of milled washed PCS by the GH61 polypeptide: no sulfur-containing compound; for GH61 effect (Equation 4): in the absence of L-cysteine (Example 4); for Percent conversion of milled washed PCS: no L-cysteine
Method: (§1) The effect of various sulfur-containing compounds on the cellulolytic enhancing activity of GH61 polypeptides was evaluated according to the procedures described below.

[2] = test system: Trichoderma reesei cellulase composition; test: Hydrolysis of milled unwashed pretreated corn stover (PCS) by the Trichoderma reesei cellulase composition with/without GH61 polypeptide and sulfur-containing compound; conditions: for Enhancement of hydrolysis of milled unwashed PCS by the GH61 polypeptide: no sulfur-containing compound
Method: as §1

[3] = test system: Trichoderma reesei cellulase composition; test: Hydrolysis of AVICEL® (microcrystalline cellulose) by the Trichoderma reesei cellulase composition with/without GH61 polypeptide and sulfur-containing compound
Method: as §1

B1: T. aurantiacus GH61A polypeptide: GH61A polypeptide having cellulolytic enhancing activity (SEQ ID NO: 14), recombinantly prepared in Aspergillus oryzae JaL250 (protein, listed as Thermoascus aurantiacus)
chain: MSFSKIIATAGVLASASLVAGHGFVQNIVIDGKYYGGYLVNQYPYMSNPPEVIAWSTTATDLGFVDGTGYQTPDIICHRGAKPGALTAPVSPGGTVELQWTPWPDSHHGPVINYLAPCNGDCSTVDKTQLEFFKIAESGLINDDNPPGIWASDNLIAANNSWTVTIPTTIAPGNYVLRHEIIALHSAQNQDGAQNYPQCINLQVTGGGSDNPAGTLGTALYHDTDPGILINIYQKLSSYIIPGPPLYTG
- Enhancement of hydrolysis of milled washed PCS by the GH61 polypeptide ([1]; 1 day): 14%
- Enhancement of hydrolysis of milled washed PCS by the GH61 polypeptide ([1]; 3 days): 31%
- Enhancement of hydrolysis of milled washed PCS by the GH61 polypeptide ([1]; 7 days): 31%
- GH61 effect (Equation 4) ([1]; PCS, 3 days): 1.31±0.030
- Percent conversion of milled washed PCS ([1]; day 1, GH61 polypeptide at 10% (w/w) of the cellulase composition (2 mg per g cellulose)): 27±0.8%
- Percent conversion of milled washed PCS ([1]; day 1, GH61 polypeptide at 25% (w/w) of the cellulase composition (2 mg per g cellulose)): 27±0.8%
- Percent conversion of milled washed PCS ([1]; day 1, GH61 polypeptide at 50% (w/w) of the cellulase composition (2 mg per g cellulose)): 27±0.8%
- Percent conversion of milled washed PCS ([1]; day 3, GH61 polypeptide at 10% (w/w) of the cellulase composition (2 mg per g cellulose)): 55±3%
- Percent conversion of milled washed PCS ([1]; day 3, GH61 polypeptide at 25% (w/w) of the cellulase composition (2 mg per g cellulose)): 57±0.5%
- Percent conversion of milled washed PCS ([1]; day 3, GH61 polypeptide at 50% (w/w) of the cellulase composition (2 mg per g cellulose)): 59±2%
- GH61 effect (Equation 4) ([1]; milled washed PCS, 7 days): approximately 1.31±0.03
- Enhancement of hydrolysis of milled unwashed PCS by the GH61 polypeptide ([2]; 1 day): 19%
- Enhancement of hydrolysis of milled unwashed PCS by the GH61 polypeptide ([2]; 3 days): 21%
- Enhancement of hydrolysis of milled unwashed PCS by the GH61 polypeptide ([2]; 7 days): 19%
- GH61 effect (Equation 4) ([2]; milled unwashed PCS, 7 days, in the absence of L-cysteine (Example 4)): 1.19±0.08
- GH61 effect (Equation 4) ([3]; AVICEL®, day 1, in the absence of L-cysteine, all GH61 concentrations tested (5.6, 14, 28 mg per liter), FIG. 3B): 1
- GH61 polypeptide concentration at which the GH61 effect was maximal ([3]; AVICEL®, day 1, intermediate L-cysteine concentrations, FIG. 3B): approximately 15 mg per liter
- Effect of the GH61 polypeptide on hydrolysis of AVICEL® (microcrystalline cellulose) by the T. reesei cellulase composition ([3]; in the absence of a sulfur-containing compound): did not enhance; also recorded: no detectable effect
